Assays:
[1] = system: mouse platelets; assay: Reversal of ADP-induced aggregation of mouse platelets in vitro; assay type: cell-based; conditions: 5 μM ADP; soluble CD39 2.5 or 1.25 μg/ml
Procedure: ADP (5 μM) was added to mouse platelets in vitro to induce an aggregation response. Soluble CD39 (2.5 μg/ml or 1.25 μg/ml) was added at the peak of the aggregation response.

[2] = set-up: species or system pigs; conditions: pig, in vivo
Procedure: Aspirin was administered orally on a daily basis. Placebo controls consisted of aspirin. Saline controls and solCD39 were administered as a single bolus. Time points were measured following this administration. Blood samples were obtained via an external jugular vein catheter. […] ADP-induced platelet aggregation was measured at specific time intervals following administration. The concentration of CD39 in serum as a function of time was measured using an ELISA assay. Distribution and clearance half-lives were determined using a biphasic curve fit.

[3] = system: injured coronary artery segments; assay: Percutaneous transluminal coronary angioplasty (balloon injury) study
Text: Porcine platelets and fibrinogen were labeled with ^111Indium and ^125Iodine respectively for infusion into pigs. […] Oral ASA was given to all pigs for at least three day prior to the coronary angioplasty procedure, and heparin (100 U/kg) was given at the time of the angioplasty. One to three days prior to the angioplasty an external jugular line was inserted to administer the labeled platelets and fibrin, CD39 or saline, and to facilitate blood draws. Labeled platelets and fibrinogen were given approximately 18 hours prior to balloon injury. Coronary arteries were injured using an oversize balloon. A coronary guide catheter was first advanced into the ascending aorta. An oversized balloon was then advanced into a coronary vessel and inflated at 6 to 8 atmospheres for a total of thirty seconds. The balloon was then deflated and withdrawn. The average ratio of balloon size to vessel size was 1.32 for the placebo group and 1.29 for the CD39 group.
Platelet aggregation and bleeding time were measured 30 minutes after administration. […] Moreover, no bleeding was noted during PTCA or after sheath removal and there was no significant difference in hematocrit or platelet counts between the groups.
After the radioactivity decayed, toluidine-blue stained injured coronary artery segments were examined histologically, in order to further characterize the extent of thrombus formation. A blinded observer qualitatively evaluated the degree of histologic injury in the coronary segments by assessing, on a scale of 1-4 with 4 being the most severe injury, the severity of medial and internal elastic lamina tear, medial separation, and hemorrhage. A composite injury score was obtained by totaling, the three individual scores. The medial injury scores for the placebo and CD39 groups were 2.5 and 2.2 respectively; medial separation scores for the placebo and CD39 groups were 2.0 and 1.6 respectively; the degree of hemorrhage for the placebo and CD39 groups were 2.3 and 2.5 respectively. The composite injury scores for the placebo and CD39 groups were […] and 6.2 respectively. These in vivo results correlate well with results, reported herein, obtained in vitro and ex vivo.

[4] = set-up: species or system Balb/c mice; conditions: mouse, in vivo, iv
Procedure: At various times after injection (5, 10, 30 min, 1, 2, 4, 8, 24 h), pairs of mice were bled by cardiac puncture and euthanized. Serum was prepared from each blood sample and frozen until assay. […] The data were fit using […], Monterey, Calif.). The best fit was derived using double exponential decay. Where indicated, specificity of enzyme activity was determined by incubating serum samples with anti-CD39 mAb-coated beads to remove CD39 prior to testing for ATPase activity.

[5] = Phosphate release assay for ATPase activity; assay type: biochemical; conditions: for ATPase activity, CPM × 10^3 (net counts): Table 3, 5-day 1× COS-1 sups
Procedure: This example describes an ATPase assay that may be used to track enzyme activity. Samples (approximately 100 μl of either concentrated CM or purified polypeptide) are combined with 20 μl of 10× assay buffer (200 mM HEPES, 1.2 M NaCl, 50 mM KCl, 15 mM CaCl2, 15 mM MgCl2 and 3 mM ATP) and sterile water is added to a final volume of 200 μl. Radiolabeled ATP (0.8 μCi γ [^32P] ATP; Amersham, Arlington Heights, Ill.) is added and the mixture incubated for 20 minutes at 37° C. […] After centrifugation (14K rpm for 10 minutes), the supernatant is assayed for free ^32P using a scintillation counter. Data are expressed as raw counts or net counts, or as picomoles of ATP degraded per minute. […] The transfections were repeated and the CM (10, 20 and 30 μL, unconcentrated) was assayed essentially as described in Example 7. […] ATPase levels in CM from COS-1 cells transfected with pIL2LFlagSolCD39 increased with time in culture over at least 4 days post-transfection. To determine whether activity was affected by removal of the N-terminal FLAG® tag, COS-1 cells were transfected with pIL2LFlagSolCD39 and pIL2LSolCD39 and supernatants (sups) were harvested after 5 days. Samples of 10, 20 and 30 μL of 1× sups were assayed for ATPase activity as described in Example 7. […] The expression of Trim1 and Trim2 constructs was analyzed in COS-1 cells cultured in 10 cm plates. After 5 days of incubation, 1× supernatants were examined via ELISA (using anti-CD39) and the phosphate-release assay described in Example 7. […] Expression levels, however, appeared to be reduced 3-4 fold.

[6] = 670 μg/kg i.v. plus heparin and ASA, 24 hours after balloon injury

B1: solCD39: recombinant soluble human CD39, untagged: 12 mature huIL2 residues, three amino acid linker, sol CD39 (SEQ ID NO:7) (protein)
chain: MALWIDRMQLLSCIALSLALVTNSAPTSSSTKKTQLTSSTQNKALPENVKYGIVLDAGSSHTSLYIYKWPAEKENDTGVVHQVEECRVKGPGISKFVQKVNEIGIYLTDCMERAREVIPRSQHQETPVYLGATAGMRLLRMESEELADRVLDVVERSLSNYPFDFQGARIITGQEEGAYGWITINYLLGKFSQKTRWFSIVPYETNNQETFGALDLGGASTQVTFVPQNQTIESPDNALQFRLYGKDYNVYTHSFLCYGKDQALWQKLAKDIQVASNEILRDPCFHPGYKKVVNVSDLYKTPCTKRFEMTLPFQQFEIQGIGNYQQCHQSILELFNTSYCPYSQCAFNGIFLPPLQGDFGAFSAFYFVMKFLNLTSEKVSQEKVTEMMKKFCAQPWEEIKTSYAGVKEKYLSEYCFSGTYILSLLLQGYHFTADSWEHIHFIGKIQGSDAGWTLGYMLNLTNMIPAEQPLSTPLSHST
- aggregation response when added at the peak [1]: immediately reversed
- elimination half-life of biological activity (ADPase activity) [2]: 5-7 days
- t1/2α (distribution phase) [2]: 29 min
- Fibrin Deposition Ratio [3, 6]: 0.62 ± 0.10
- Platelet Deposition Ratio [3, 6]: 1.25 ± 0.19
- Bleeding Time ([3]; 30 minutes after administration): 7.00 ± 0.81
- medial injury score ([3]; histology, scale of 1-4): 2.2
- medial separation score ([3]; histology, scale of 1-4): 1.6
- degree of hemorrhage ([3]; pig, in vivo): 2.5
- tolerability ([3]; pigs, PTCA): well tolerated
- composite injury score ([3]; total of three scores): 6.2
- apyrase activity cleared from the circulation during distribution phase [4]: 55-65%
- t1/2α (distribution phase), ADPase assay ([4]; 50 ug): 43 min
- t1/2α (distribution phase), ATPase assay ([4]; 50 ug): 59 min
- ATPase activity, CPM × 10^3 (net counts) ([5]; 10 μL): 20.1 CPM × 10^3
- ATPase activity, CPM × 10^3 (net counts) ([5]; 20 μL): 36.0 CPM × 10^3
- ATPase activity, CPM × 10^3 (net counts) ([5]; 30 μL): 51.0 CPM × 10^3
- Activity (pmol ATP/min/μg) × 10^3 ([5]; specific activity in COS-1 CM, concentration by ELISA): 5.67 (pmol ATP/min/μg) × 10^3
